Results from patent publication US7264932B2, “Nuclease inhibitor cocktail” (Applera Corporation, priority 1999, dated 2007).

Columns and labels:
[1] = system: total RNase activity in murine kidney plus pancreatic lysate; assay: Proteinase K inactivation of total RNase activity in kidney lysate with pancreatic lysate; assay type: biochemical; conditions: 600 ng/uL PK
Procedure: Murine kidney (40 ul of 0.1 mg/ul) was introduced into a 50 uL reaction with a dilute pancreatic lysate (1 or 10 ul of pancreas at 0.1 mg/ul) prepared in 24 mM Hepes, pH 7.2, 50 mM NaCl, 1 MM MgCl2. All samples were digested at 50C for 5 min in PK buffer at 23C. […] Although proteinase K is a protein-based inhibitor, RNase inactivation occurs by a very different mechanism than a protein inhibitor such as RIP, since proteinase K digests RNase proteins to peptide fragments, thereby destroying the folded (active) conformation of the enzyme.

[2] = system: total RNase activity in pancreas lysate; assay: RNaseAlert fluorescent assay, pancreas lysate; assay type: biochemical, mouse; conditions: Pancreas, 0.5 U/ul RIP
Procedure: (§1) Flash-frozen mouse tissues (5 mg) were dounced in 50 ul of 24 mM Hepes, pH 7.2, 50 mM NaCl, 1 mM MgCl2. RNase activity was measured using Ambion's fluorescent RNaseAlert™ assay ([…] substrate, 10 ug/ml ultrapure BSA) via BMG POLARstar Optima Fluorometer according to the manufacturer's protocol. In addition to measuring total RNase activity, lysates were treated with Ap5A, heat (90 C for 10 min), or 0.5 U/ul RIP. Tissue lysate dilutions: pancreas 1:16,200; liver 1:17; thymus 1:17; kidney 1:17; spleen 1:810; lung 1:810. The data were normalized to maximum RNase activity observed in tissue lysate with kidney being the tissue with the lowest RNase activity and assigned the arbitrary unit of 1. […] However, RIP is specific to RNase A superfamily enzymes, where Ap5A, as a RNA analogue, is expected to be a more general RNase inhibitor.
Pancreatic tissue (5 mg) was dounced in 50ul of 24 mM Hepes, pH 7.2, 50 mM NaCl, 1 mM MgCl2. Diluted pancreas lysate (1:12,000) was subjected to a 1/10 volume of negatively charged SP resin. RNase activity of the clarified lysate was measured using. Ambion's fluorescent RNaseAlert™ assay (40 nM substrate, 10 ug/ml ultrapure BSA) via BMG POLARstar Optima, according to the manufacturer's instructions. Resin treatment removed >95% of total RNase activity in diluted pancreas lysate. […]

[3] = system: total RNase activity in spleen lysate; assay: RNaseAlert fluorescent assay, spleen lysate; assay type: biochemical, mouse; conditions: 0.5 U/ul RIP
Procedure: as §1

bovine RNase A = target: T1, bovine RNase A (Bos taurus, UniProt P61823); assay: Intactness of total RNA (RNA LabChip), bovine RNase A; assay type: biochemical; conditions: 0.2u/ul rip, 5 pg/ul bovine rnase a, e. coli total rna, room temperature 4 min
T1 sequence (P61823 27-150): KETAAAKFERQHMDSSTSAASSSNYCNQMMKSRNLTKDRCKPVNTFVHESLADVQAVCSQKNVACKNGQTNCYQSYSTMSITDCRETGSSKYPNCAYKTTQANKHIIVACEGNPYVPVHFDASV
Procedure: A total of 100 pg/ul e. […].
Mouse pancreatic tissue (5 mg) was disrupted in 50 ul of 24 mM Hepes, pH 7.2, 50 mM NaCl, 1 mM MgCl2. The diluted lysate (1:20,000) was pre-incubated with 50 uM Benzopurpurin B (BpB) for 30 sec and then added to 100 ng/ul mouse liver total RNA (Ambion) and incubated at 23 C for an additional 4 min. Samples were quenched in a guanidinium lysis buffer, and the RNA purified via MEGAclear™ MAG-96 and eluted with 20 ul nuclease-free water. […] These experiments were conducted in the same fashion except that 100 uM BpB was employed. The sample (1 ul) was analyzed by 2100 BioAnalyzer software (Agilent) after separation on an RNA LabChip.
Pancreatic tissue (5 mg) was dounced in 50 ul of 24 mM Hepes, pH 7.2, 50 mM NaCl, 1 mM MgCl2. The lysate was diluted (1:20,000) and then pre-incubated with 200 uM of 467929. […] All samples were pre-incubated for 30 sec before being added to 100 ng/ul mouse liver total RNA (Ambion) and incubated at 23C for an additional 4 min. The RNA was then immediately purified via MEGAclear™ MAG-96 and eluted with 20 ul nuclease-free water. The recovered RNA (1 ul) was analyzed by 2100 BioAnalyzer software after separation on an RNA LabChip.

[4] = system: total RNase activity in lung lysate; assay: RNaseAlert fluorescent assay, lung lysate; assay type: biochemical, mouse; conditions: 0.5 U/ul RIP
Procedure: as §1

B1: PK: proteinase K, protease that digests RNase proteins to peptide fragments (protein, UniProt P06873 106-384, looked up)
Proteinase K: AAQTNAPWGLARISSTSPGTSTYYYDESAGQGSCVYVIDTGIEASHPEFEGRAQMVKTYYYSSRDGNGHGTHCAGTVGSRTYGVAKKTQLFGVKVLDDNGSGQYSTIIAGMDFVASDKNNRNCPKGVVASLSLGGGYSSSVNSAAARLQSSGVMVAVAAGNNNADARNYSPASEPSVCTVGASDRYDRRSSFSNYGSVLDIFGPGTSILSTWIGGSTRSISGTSMATPHVAGLAAYLMTLGKTTAASACRYIADTANKGDLSNIPFGTVNLLAYNNYQA
Fold Reduction ([1]; 1 uL pancreas): 1283 | Slope ([1]; 1 uL pancreas): 0.0938 RFU/sec | Fold Reduction ([1]; 10 uL pancreas): 242 | Slope ([1]; 10 uL pancreas): 0.6074 RFU/sec | Slope ([1]; No pancreas): 0.0123 RFU/sec

B2: RIP: human placental RNase Inhibitor Protein (protein, UniProt P13489 2-461, looked up)
Ribonuclease inhibitor: SLDIQSLDIQCEELSDARWAELLPLLQQCQVVRLDDCGLTEARCKDISSALRVNPALAELNLRSNELGDVGVHCVLQGLQTPSCKIQKLSLQNCCLTGAGCGVLSSTLRTLPTLQELHLSDNLLGDAGLQLLCEGLLDPQCRLEKLQLEYCSLSAASCEPLASVLRAKPDFKELTVSNNDINEAGVRVLCQGLKDSPCQLEALKLESCGVTSDNCRDLCGIVASKASLRELALGSNKLGDVGMAELCPGLLHPSSRLRTLWIWECGITAKGCGDLCRVLRAKESLKELSLAGNELGDEGARLLCETLLEPGCQLESLWVKSCSFTAACCSHFSSVLAQNRFLLELQISNNRLEDAGVRELCQGLGQPGSVLRVLWLADCDVSDSSCSSLAATLLANHSLRELDLSNNCLGDAGILQLVESVRQPGCLLEQLVLYDIYWSEEMEDRLQALEKDKPSLRVIS
% Inhibition [2]: 99.7% | Slope/sec Final (After RIP addition) [2]: 0.17 | % Inhibition [3]: 98.0% | Slope/sec Final (After RIP addition) [3]: 1.08 | protection of total RNA from degradation (bovine RNase A): significant protection | % Inhibition [4]: 99.3% | Slope/sec Final (After RIP addition) [4]: 0.21
